What was measured:
[1] = biological target: T1, recombinant CD28 antigen (extracellular domain, expressed in mammalian cells) (UniProt P10747 19-152, limits assumed); assay: SPR (Biacore), CD28 ECD on CM5 chip, Fab as analyte
T1 construct: extracellular domain; Immobilized on a CM5 chip by amine coupling; also called T-cell-specific surface glycoprotein CD28
Description: (§1) Therefore, recombinant CD28 antigen (extracellular domain, expressed in mammalian cells) was immobilized on a CM5 chip by standard amine coupling. The Fab variants were used as analytes in HBS-EP buffer (0.01 M HEPES pH 7.4, 0.15 M NaCl, 3 mM EDTA, 0.005% v/v Surfactant P20) in a concentration of 50 μg/mL. Evaluation was conducted with the BIAeval Software using an 1:1 binding mass transfer model.

[2] = biological target: T1, recombinant CD28 antigen (extracellular …); assay: SPR (Biacore), CD28 ECD on CM5 chip, Fab as analyte at 50 ug/mL, 1:1 binding mass transfer model
Description: as §1

Binder | affinity [%] (by KD, chCD28 Fab set to 100%) [1] | Kd [2] | koff [2] | kon [2]
chCD28 Fab (chimeric) (Fab, V domains shown, Fab expressed in E. coli periplasm; not shown: Fabs were purified by IMAC) VH: QVQLKESGPGLVAPSQSLSITCTVSGFSLTSYGVHWVRQPPGKGLEWLGVIWAGGSTNYNSALMSRLSISKDNSKSQVFLKMNSLQTDDTAMYYCARDKRAPGKLYYGYPDYWGQGTTLTVSS VL: DIVLTQSPASLAVSLGQRATISCRASESVEYYVTSLMQWYQQKPGQPPKLLIYAASNVESGVPARFSGSGSGTDFSLNIHPVEEDDIAMYFCQQTRKVPSTFGGGTKLEIKR | 100% | 0.032 µM | 0.032 s⁻¹ | 1e+06 M⁻¹ s⁻¹
huCD28_v4 Fab (humanized) (Fab, V domains shown, not shown: small tags and cut ends, Humanized 15E8 Fab expressed in E. coli periplasm) VH: QVQLQESGPGLVKPSETLSLTCTVSGFSLTSYGVHWIRQPPGKGLEWLGVIWAGGSTNYNSSLKSRVTISKDTSKNQVSLKLSSVTAADTAVYYCARDKRAPGKLYYGYPDYWGQGTTLTVSS VL: DIVMTQSPDSLAVSLGERATINCRASESVEYYVTSLMQWYQQKPGQPPKLLIYAASNVESGVPARFSGSGSGTDFTLTISPLQAEDVAVYYCQQTRKVPSTFGGGTKLEIKR | 60% | 0.053 µM | 0.021 s⁻¹ | 400000 M⁻¹ s⁻¹
huCD28_v3 Fab (humanized) (Fab, V domains shown, not shown: small tags and cut ends, Humanized 15E8 Fab expressed in E. coli periplasm) VH: QVQLQESGPGLVKPSETLSLTCTVSGFSLTSYGVHWIRQPPGKGLEWLGVIWAGGSTNYNSSLKSRVTISKDTSKNQVFLKLSSVTADDTAVYYCARDKRAPGKLYYGYPDYWGQGTTLTVSS VL: DIVMTQSPDSLAVSLGERATINCRASESVEYYVTSLMQWYQQKPGQPPKLLIYAASNVESGVPARFSGSGSGTDFTLTISPLQAEDVAVYYCQQTRKVPSTFGGGTKLEIKR | 62% | 0.052 µM | 0.026 s⁻¹ | 500000 M⁻¹ s⁻¹
huCD28_v2 Fab (humanized) (Fab, V domains shown, not shown: small tags and cut ends, Humanized 15E8 Fab expressed in E. coli periplasm) VH: QVQLQESGPGLVKPSETLSLTCTVSGFSLTSYGVHWVRQPPGKGLEWIGVIWAGGSTNYNPSLKSRVTISKDTSKNQFSLKLSSVTAADTAVYYCARDKRAPGKLYYGYPDYWGQGTTLTVSS VL: DIVMTQSPDSLAVSLGERATINCKSSESVEYYVTSLLQWYQQKPGQPPKLLIYAASNRESGVPDRFSGSGSGTDFTLTISSLQAEDVAVYYCQQTRKVPSTFGGGTKLEIKR | 35% | 0.092 µM | 0.055 s⁻¹ | 600000 M⁻¹ s⁻¹
huCD28_v1 Fab (humanized) (Fab, V domains shown, not shown: small tags and cut ends, Humanized 15E8 Fab expressed in E. coli periplasm) VH: QVQLQESGPGLVKPSETLSLTCTVSGFSLTSYGVHWVRQPPGKGLEWLGVIWAGGSTNYNSALMSRLTISKDTSKNQVSLKLSSVTAADTAVYYCARDKRAPGKLYYGYPDYWGQGTTLTVSS VL: DIVMTQSPDSLAVSLGERATINCRASESVEYYVTSLMQWYQQKPGQPPKLLIYAASNVESGVPDRFSGSGSGTDFTLTISSLQAEDVAVYYCQQTRKVPSTFGGGTKLEIKR | 76% | 0.042 µM | 0.08 s⁻¹ | 1.9e+06 M⁻¹ s⁻¹

From US20180112000A1 (MILTENYI BIOTEC, published 2018)
